The results in this text go back to IntAct's records for PubMed 18200045.

B1: Epidermal growth factor receptor substrate 15 (Homo sapiens), P42566 (parent)
chain: MAAAAQLSLTQLSSGNPVYEKYYRQVDTGNTGRVLASDAAAFLKKSGLPDLILGKIWDLADTDGKGILNKQEFFVALRLVACAQNGLEVSLSSLNLAVPPPRFHDTSSPLLISGTSAAELPWAVKPEDKAKYDAIFDSLSPVNGFLSGDKVKPVLLNSKLPVDILGRVWELSDIDHDGMLDRDEFAVAMFLVYCALEKEPVPMSLPPALVPPSKRKTWVVSPAEKAKYDEIFLKTDKDMDGFVSGLEVREIFLKTGLPSTLLAHIWSLCDTKDCGKLSKDQFALAFHLISQKLIKGIDPPHVLTPEMIPPSDRASLQKNIIGSSPVADFSAIKELDTLNNEIVDLQREKNNVEQDLKEKEDTIKQRTSEVQDLQDEVQRENTNLQKLQAQKQQVQELLDELDEQKAQLEEQLKEVRKKCAEEAQLISSLKAELTSQESQISTYEEELAKAREELSRLQQETAELEESVESGKAQLEPLQQHLQDSQQEISSMQMKLMEMKDLENHNSQLNWCSSPHSILVNGATDYCSLSTSSSETANLNEHVEGQSNLESEPIHQESPARSSPELLPSGVTDENEVTTAVTEKVCSELDNNRHSKEEDPFNVDSSSLTGPVADTNLDFFQSDPFVGSDPFKDDPFGKIDPFGGDPFKGSDPFASDCFFRQSTDPFATSSTDPFSAANNSSITSVETLKHNDPFAPGGTVVAASDSATDPFASVFGNESFGGGFADFSTLSKVNNEDPFRSATSSSVSNVVITKNVFEETSVKSEDEPPALPPKIGTPTRPCPLPPGKRSINKLDSPDPFKLNDPFQPFPGNDSPKEKDPEIFCDPFTSATTTTNKEADPSNFANFSAYPSEEDMIEWAKRESEREEEQRLARLNQQEQEDLELAIALSKSEISEA
partner: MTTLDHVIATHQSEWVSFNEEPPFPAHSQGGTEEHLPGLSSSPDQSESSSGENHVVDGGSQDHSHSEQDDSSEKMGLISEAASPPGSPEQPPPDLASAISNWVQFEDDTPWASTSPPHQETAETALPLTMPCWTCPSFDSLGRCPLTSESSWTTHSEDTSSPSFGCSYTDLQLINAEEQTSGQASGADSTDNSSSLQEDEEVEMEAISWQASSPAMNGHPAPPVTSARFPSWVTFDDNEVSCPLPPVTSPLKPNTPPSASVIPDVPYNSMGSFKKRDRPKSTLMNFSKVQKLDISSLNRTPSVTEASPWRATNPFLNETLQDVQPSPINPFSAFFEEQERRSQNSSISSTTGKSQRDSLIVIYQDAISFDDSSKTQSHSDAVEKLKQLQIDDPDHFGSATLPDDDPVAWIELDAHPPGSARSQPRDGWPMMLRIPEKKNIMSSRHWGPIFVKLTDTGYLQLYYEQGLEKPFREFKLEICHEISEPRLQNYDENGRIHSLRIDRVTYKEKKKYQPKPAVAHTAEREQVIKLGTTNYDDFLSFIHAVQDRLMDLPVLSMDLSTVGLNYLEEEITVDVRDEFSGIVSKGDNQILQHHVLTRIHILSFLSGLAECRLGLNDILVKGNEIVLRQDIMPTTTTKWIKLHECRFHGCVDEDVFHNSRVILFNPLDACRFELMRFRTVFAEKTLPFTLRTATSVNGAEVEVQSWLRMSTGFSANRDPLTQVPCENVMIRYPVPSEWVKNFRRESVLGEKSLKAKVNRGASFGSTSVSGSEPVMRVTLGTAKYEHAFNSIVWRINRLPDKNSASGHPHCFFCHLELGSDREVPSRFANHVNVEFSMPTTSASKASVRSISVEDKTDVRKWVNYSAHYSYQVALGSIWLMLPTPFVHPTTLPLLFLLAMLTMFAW

The variants in the first experiment derive from B1. The conditions noted are these: with ston2_human STON2, Q8WXE9.
Take W266A: the “effect of a mutation on the interaction” value was “decreasing interaction”.

In another experiment the parent is B1. As to conditions: with ston2_human STON2, Q8WXE9. This is another data set of the same source.
V154E: the “effect of a mutation on the interaction” value is listed as “decreasing interaction”.

The variants in another experiment derive from B1. As to conditions: with ston2_human STON2, Q8WXE9. The source holds these as a separate data set.
V154E: the “effect of a mutation on the interaction” value was “disrupting interaction”.

The variants in the next experiment derive from B1. As to conditions: with ston2_human STON2, Q8WXE9. This is another data set of the same source.
Regarding W169A, the “effect of a mutation on the interaction” value is recorded as “decreasing interaction”.

The variants in the next experiment derive from B1. As to conditions: with ston2_human STON2, Q8WXE9. The source holds these as a separate data set.
With W169A, the “effect of a mutation on the interaction” value was “disrupting interaction”.

Variants of B1 are the subject of the next experiment. As to conditions: with ston2_human STON2, Q8WXE9. The source holds these as a separate data set.
Consider Y193D, for which the “effect of a mutation on the interaction” value is reported as “decreasing interaction”.
